For the series, the target named is T1, MBP-GlnR (Mycobacterium smegmatis (SMR5?)) (UniProt A0R4C4).
T1 sequence: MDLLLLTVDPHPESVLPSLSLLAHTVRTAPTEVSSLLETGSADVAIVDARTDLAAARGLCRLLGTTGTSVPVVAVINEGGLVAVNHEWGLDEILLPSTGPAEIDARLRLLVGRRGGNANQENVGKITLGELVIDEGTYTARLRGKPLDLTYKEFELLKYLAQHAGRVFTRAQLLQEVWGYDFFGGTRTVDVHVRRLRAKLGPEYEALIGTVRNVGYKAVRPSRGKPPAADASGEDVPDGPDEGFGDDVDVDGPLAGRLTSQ
Description: EMSA. To be noted: GlnR: DIG Gel Shift Kit (Roche) buffer, 6% native PAGE, 0.5x TBE; AmtR: 20 mM Tris-HCl pH 7.9, 25 mM KCl, 1 mM DTT, 5 mM MgCl2, 0.5 mg/ml BSA, 5% glycerol ….

For the sequence “AACGGTGTGCTTCCTCCGCTGTAGGTGGATCACCGCGTGAAGCGGGTGACCGGTGCAGGGTCGGCGCAACTTACTGCGCTTGGAAAATGCTCGCGCAGGAACGTTTCGGTGGATCCCGTCGGCAATGTCGGTGACGTTAACTCTGCACGGCCCCGCGTTACGTTGTGGTGACCTGACGCAACGGATTTCGTTGTGTGTCCGGTAGGCCCGCGTGACGACGAACCCGGCCGGCCGATGTTCGGCCGACCGGGTCGTCACGAGGTCACGGCTA (double strand) [msmeg_2526 upstream]”, the binding result is “binds”.
The result for “AGGCTTTTCGCCGGCTGCTGTGATCACACCAAGATCGTCGGCGCAGTCGATGACCTAGATGTTGTCGTGAAGTTTCAAGAATGTGACGTCATCAGTCGGCGGCTGCGTCGACCGCCAGCAGCAGTCGCAACGCGCCCGCATCGCGAGGGACTGCCGGGTCGAGGCCGGTACTGCTGGTCACCCTGGCCAGTCGGTTGATGACGGTGTTGCGATGGCAGTAGAGCCTGCGAGCGGTCTCGGTGACGGAACCGGTGTCGAGATAGATGCGCAGCGTGTCCGTGAGCAAGGTCTGATCGCGCG (double strand) [msmeg_3400 upstream]” reads “binds”; that for “CAAACATCTCCTCACGGTGGCGGCTCGAAACAAGCCGTTCACTCGCAGTAACCGACGTTTCTGTTACGGAGATGGTCGCCAAGTGTTGCAGCGTGGTTAAAACTCAAACCGCGCTTTACAGCGGGTTGCCCCATCGGCCCGTGAACGCAACCTGCTCAAGTGCCAGACGTTCACGCGGGCGGCTGTCGCGTTCGGCGATGGCCTCGTCGGCCGTCGCGTAGTCACCGAGGTGTCCCAGCG (double strand) [amt1 upstream]”, “binds”.
To “CATGTGCCACCGTCGCGGCACGCGCGCCGACGAGTTCGCGCGCAGCCGCGGGCAGTTCGGCCGTGGCGGCGCGCAGACCGGCCACCGAGGTCGCCGCGTCGATGTGGCGCTGCACGAGGTCGGGGGCGGGCATACCGGCGATTGTGACAGGCCCACGGGCGGTGAGGGTTCTGCAACCGAATGCTTACCGACGGCTACATGAACGAAACATTCGGGTGACGCCGAGGACACGCGCCCATTGTTATCTGTCATCTGACAGGTAAGAGCTGGCGGCAGCGCCCCTAGCCAGAGAGAAAACCC (double strand) [msmeg_2184 upstream (GlnR probe)]” belongs “binds”; to “CCAGTCCAGGAAATCACCGGATATCGGCTGGCGCGTCATTTTGACGGAAAACGTGGGGTACGCCGTTTCGCCGGGTCACCTCGGCGAACCACCGTGCGCTGGCCTTGGGCGTGCGGACCTGCGTGGCGTAATCGACGTGGATCAGGCCGAACCGCTTGGCGTAGCCGTACGCCCACTCGAAGTTGTCCAGCAGGCTCCACACGAAATAACCGCGGATGTCGGCACCATCGTCGATCGCCCG (double strand) [narK upstream]”, “no binding”; to “CCCAGCTCGCCACTCTCGATGGTGGCCAGCACCAGGGACTTCTCGGGCACGAACCCGAGCACGGCGGGCAGCGCCGCGATCAACGATCCGGGCCGGTTGATACGAAAATCCGGTGTGTGCGGTGAAGGTGTCATGTGCCGACCGTGGCAACCGGCGCCGACGCCGTTCACCCCGAAAACCGGCTGCGACGAGTGGCTGTGGACGAAATCGGCTCTGGGGACAACTTCCGAAACAAACTGTTCACGCGCCATTGCGCGTCTCCGGCGTGCACGCGCGCCGACAGCGGCGTACACACTGACC (double strand) [msmeg_2748 upstream]”, “no binding”.
The result for “CCGCGACGTCGACCGCGCGCCCGGTCACCGGGCCCGGACCCGGCAAGGTGGTCGTGGTGTCGACGACAGGGGACCCGGCGACGCCGTACCAGGCCGGTGTGGACCTCGCCCGGCAAATGGGCGCGGCCCTGATCAGTTTCGACGGTGCGCAGCACACCGTGGTGTTCAACGGAGATGCCTGCGTCGACACCGCGGTGTTGCGCTTCCTGACCGATCTGCAGTCGCCCCCGGGCAACCTTGCCTGCTAGCTCTTGCACCCCCGTAACACAGATTTAACAGCCGGTGCATACGCTGCGGAGC (double strand) [glnA2 upstream]” reads “binds”.
On to “CCGGATGTTCCTTTCAGCTCTGCAGATTCGGGTGCCGTCAGTCCCAGTGCGCCTTGAAACCCAGTGCCGGGACGGTCTCCCCCAGCCCGGGTGTGGAGGCCTTGCGGATCAGGGCCAGTGTCTCGGCATACGTGGTGTGGTTCTCCGCGAGCCGCTCGGCGGGCACGGGCAGGCCCGCGAACTCGAACGCCGCGGAAATCTGTTCCTGCGATGGCATGAAATCGGACATGGTTCTCCTCGCTCTCAGAGGTTGGGGGTGAAGTCGACGAAACCGGCGATCCGCTCGAAGGCCCGGCCTG (double strand) [msmeg_1090 upstream]”, for which the binding result was “no binding”.
“CGGGGTCATCGGGCGGTCCGGCACGCCCGGCAAGGCCTGGGCCTGGCAGACCCGCTCGTGGTCGAAGGGCAAGATCCACCCCGCGGCGGTGCTCTATCAACACACCATCGACACCGCGTCGAACCCCGGACCGTTGGTCGGCGGCATCCGCGTGGATGTCAACGACGCCTTGGCCCAGGACATCGGCCAGTGGAATTTCCACCCCTGAGGTCACATCACTTTAATCTCGACGCAATTGCGTTGCCATACCGGTGATCTCTACTGAAGGCGCCAGCAGCCCCCTTCAGAGGACACCCGCCC (double strand) [msmeg_6816 upstream]”: the binding entry is listed as “no binding”.
To “GAACAACCTTTCCCGATGATTGCAGCGCATTTTGGGCCGATCGCCTCGGCCGCGGTGCAGGAGGTTAAACACACTGTGCTGGTGTCGAATCGGGACGTTAGAGCGCGCGTGTTACTGCCAAATGTCTGTGTGTGACGAACAAATTAACCTCGACATGACATGCCGCTGGTTTGCCGCCGGTTCTCGACGCCGTGACACCGGCGTGGCGTGTGTAACGGGGAGGTAGCCTGCGTCGATATG (double strand) [urtA upstream]” belongs “binds”.
The result for “GCCCTCCGGGCGGTATCTGCGCCTGAACTTCTCCGGGCCGGAGCCGGACCGGTTCGAGGAGGCGGCGCGCGTGATCGGACGGTCGCTGCGCAGACAGCTGTGACCCGGCGGTTGTGGCCTGACTGTGGTCCGGAGAGCTCACCGGTCGGGGACCTCACATGTGCGTTGCCGAAGACGTGAGCACACCGTGATGGGGGCTTCACACAGCGCGACATCGCGGCAATATCGGGTTCTTAGCCTCGCCCTATG (double strand) [nirB upstream]” reads “no binding”; that for “GCGAGGCAGACTAGCGGCATGACCGATGACGGCTACACAGTCGGTGACTACCTCCTGGACCGGCTCGCCGAACTCGGCGTGACCGAGGTCTTCGGCGTCCCCGGCGACTATCAGCTGGAGTTCCTCGACCACGTCGTGGCGCACCCGCGCATCACGTGGGTCGGCGGCGCGAACGAACTCAACGCGGGCTACGCGGCCGACGGCTACGGCCGGCTGCGGGGCATGGCGGCGTTGGTCACCACGTTCGGCGTCGGTGAGCTCTCGGCGGCCAACGCCATCGCAGGCAGCTACGCCGAGCAC (double strand) [msmeg_5734 upstream]”, “no binding”; that for “GGACCGGGACCGGATAGCCAGGATCCCAACCGGGAGCCGTTTGTGCGGGCCATGATGTCAGGATAGGCGCGTGCGGATGTCCGGCCGCCGGGTGCCACGTCGCGACGCGGTTCACACCGATGTGTGCTGGAGTTCACCGGCGGACACGCTCAAACCGATTGCGTAACGTCGGCGCAACATCGGGTTGACGACTGCGCAACATCGTGTCCTTAGCGTCAACGCGCGGGTTACCAGTAAAGGAGAACACTCA (double strand) [glnA upstream]”, “binds”.
To “GGGGTCACCACCTGCTGCTCGGCATCCACCATGTATCCCAGGAACGCACCGGCCCGGCGCGAAACGTGGTAGTGCACCACGAGTTTGCGCCCGCATCCGGTGCAGCCCACCAGGCCGTCGATCTCGACCGCGGCGGTGGTGACGGCGCGGCAGTGCGTACAGAACACGTCGCGGTGGGCGACCTCGGTGCTCGCGATCGTGATCTCGTCGTCGGCGATACCGTGCGCGAGGGCGTGGGCACGCACACGCAGATTCAGGTGAGCGGGGCCGGCGGTCATCAGTCGCCAGCCCACCACCGCG (double strand) [msmeg_4638 upstream]” belongs “no binding”.
As for “GGGTCTCTCCAGGGAGGCGATGAGGGTGCGGGCGGCGACAGTGCCGGGAGCCGGATGATCGGCTGGGTCAATTACAGGCCCCGGCCATTGCCGTGTGGTTAGGGATGGACTACTTCTGAATTGCCGAAATCTCACAGCGGCAATGTGCTCGTAATAAGTGCAGCATGCGCCTTGACCTCAACCTCACTTGAGGTGCCAGGCTGGCTCTCATGACATGTGGACTCCAGTGGCCAGAGGCGGTAAACCGCCGCGAACCCGGGGGTAAACCCCCTGGGGACCTGGATCGGCACGCAGTAACTT (double strand) [msmeg_0572 upstream]”, the binding entry was “binds”.
To “GGTGCCGACCGCCCCGACGACGAGCGCGGCCACCGCCGCGACGAACCCGACCACCAGTCTGCGCACCGGGACATTGTTGCCCACGAGACCGGCAAAGATTCGCTCGGCGCGGCTGACGAGCAGGTGAGGCGTTATCCTCGTAACACCAAAGGCCGGTAACGGCTACATGTCAGTCATGAATCCGGAAGATCACCCGACACCGGCGTCTGTGTTCTCCCGCAGAGATTCCTGACGAGCCGGGAGGACTTG (double strand) [glnR upstream]” belongs “no binding”.
The result for “GGTGGCGGCGAGTTCGATACCGCTGTCGCTCAACGTGACCGGCGGCCACCCCAATCCGGTGAGGTCCACGAGCCTGCGCAGCTGAGGTTGGGGCTCGGAAAACAGCCAGGTCCCACCGGCCAACACCGCGTCGCCGGCCCCCAGCGGCCACACCTCCTCGCGACGGGTCGGCCGGTCCACCACCTCGACGGTGTTGAGGTCCATTCCCGCGACCGTAACCAAAGTGAACGCGCCGTGCACCATGAACCGTGGCACAACGCTCGGCGTGCGAACCGCCGCGATCTGTCCGATTCTTAGTCG (double strand) [msmeg_1293 upstream]” reads “no binding”; that for “GTCCGCCAAGTTACCGGCCGGAAAAATAAGGTGCGCGCCTCCCTTATCCTTGTTGGGACTCATTCCGGCTCGATCCCACATGCGAAAGGTTGATCAGGTGGCGCTCGTCGTACAGAAATACGGCGGATCCTCGGTGGCGGACGCCGAGAGGATCCGACGGGTCGCCGAGCGGATCGTCGAGACCAAGAAGGCGGGCAACGACGTCGTCGTCGTCGTCTCCGCGATGGGTGACACCACCGATGACCTGCTGGACCTGGCGCGCCAGGTGTCGCCCGCGCCGCCGCCGCGCGAGATGGACAT (double strand) [msmeg_6258 upstream]”, “no binding”.

The values are drawn from publication PMC4222082, “Nitrogen starvation-induced transcriptome alterations and influence of transcription regulator mutants in Mycobacterium smegmatis”.
